Earlier results on five substances are cited in paper PMC4718210.

Where two headings read alike, the source gives them in different places.

Data set [1] addresses RXFP2 receptor (Homo sapiens) (UniProt Q8WXD0).
For data set [2], the target named is RXFP4 receptor (Homo sapiens) (UniProt Q8TDU9).
Data set [3] has the same target. This is another data set of the same source.
Data set [4] has as its target TRH1 receptor (Homo sapiens) (UniProt P34981).
Data set [5] has as its target RXFP1 receptor (Homo sapiens) (UniProt Q9HBX9).
UniProt Q9HBX9, sequence (Q9HBX9 whole entry): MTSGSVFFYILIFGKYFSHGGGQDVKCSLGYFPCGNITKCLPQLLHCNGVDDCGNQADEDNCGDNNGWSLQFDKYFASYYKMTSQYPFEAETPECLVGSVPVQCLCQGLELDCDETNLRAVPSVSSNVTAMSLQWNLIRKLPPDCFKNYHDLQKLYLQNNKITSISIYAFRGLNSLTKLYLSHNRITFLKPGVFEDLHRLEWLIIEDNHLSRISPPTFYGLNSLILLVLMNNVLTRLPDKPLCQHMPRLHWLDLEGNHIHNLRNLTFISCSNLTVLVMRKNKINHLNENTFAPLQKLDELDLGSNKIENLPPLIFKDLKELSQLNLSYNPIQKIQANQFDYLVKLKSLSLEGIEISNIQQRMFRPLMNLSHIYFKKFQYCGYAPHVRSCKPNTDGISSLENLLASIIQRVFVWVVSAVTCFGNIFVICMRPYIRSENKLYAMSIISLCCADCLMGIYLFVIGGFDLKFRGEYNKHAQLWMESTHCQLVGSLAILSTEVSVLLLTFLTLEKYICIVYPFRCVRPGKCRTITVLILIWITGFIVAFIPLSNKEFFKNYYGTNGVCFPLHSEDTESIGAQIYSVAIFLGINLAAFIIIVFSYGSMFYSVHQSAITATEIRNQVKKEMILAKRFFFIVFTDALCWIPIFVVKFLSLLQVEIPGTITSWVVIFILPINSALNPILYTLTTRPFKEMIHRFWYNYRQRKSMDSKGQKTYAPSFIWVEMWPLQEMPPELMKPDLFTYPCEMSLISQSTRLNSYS

UniProt Q8TDU9, sequence (Q8TDU9 whole entry): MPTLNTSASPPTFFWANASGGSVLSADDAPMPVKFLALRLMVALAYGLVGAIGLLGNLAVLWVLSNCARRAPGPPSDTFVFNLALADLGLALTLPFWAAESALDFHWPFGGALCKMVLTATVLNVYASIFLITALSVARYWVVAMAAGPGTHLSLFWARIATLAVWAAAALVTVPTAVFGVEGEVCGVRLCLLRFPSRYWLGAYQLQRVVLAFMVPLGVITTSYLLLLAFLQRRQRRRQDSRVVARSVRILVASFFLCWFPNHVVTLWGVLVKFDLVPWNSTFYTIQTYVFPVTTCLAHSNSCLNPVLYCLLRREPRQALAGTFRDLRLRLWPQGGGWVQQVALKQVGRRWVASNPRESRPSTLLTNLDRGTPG
UniProt P34981, sequence (P34981 whole entry): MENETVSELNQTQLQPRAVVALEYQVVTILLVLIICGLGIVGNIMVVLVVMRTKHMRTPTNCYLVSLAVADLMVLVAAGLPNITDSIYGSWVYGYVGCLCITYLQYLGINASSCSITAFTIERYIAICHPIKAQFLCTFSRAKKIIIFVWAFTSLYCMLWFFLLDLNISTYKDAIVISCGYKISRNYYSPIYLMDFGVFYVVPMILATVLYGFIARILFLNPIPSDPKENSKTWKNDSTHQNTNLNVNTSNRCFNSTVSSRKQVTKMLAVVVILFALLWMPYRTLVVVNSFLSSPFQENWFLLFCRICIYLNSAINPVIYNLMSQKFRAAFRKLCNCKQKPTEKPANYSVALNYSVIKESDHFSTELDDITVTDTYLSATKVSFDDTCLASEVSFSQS
UniProt Q8WXD0, sequence (Q8WXD0 whole entry): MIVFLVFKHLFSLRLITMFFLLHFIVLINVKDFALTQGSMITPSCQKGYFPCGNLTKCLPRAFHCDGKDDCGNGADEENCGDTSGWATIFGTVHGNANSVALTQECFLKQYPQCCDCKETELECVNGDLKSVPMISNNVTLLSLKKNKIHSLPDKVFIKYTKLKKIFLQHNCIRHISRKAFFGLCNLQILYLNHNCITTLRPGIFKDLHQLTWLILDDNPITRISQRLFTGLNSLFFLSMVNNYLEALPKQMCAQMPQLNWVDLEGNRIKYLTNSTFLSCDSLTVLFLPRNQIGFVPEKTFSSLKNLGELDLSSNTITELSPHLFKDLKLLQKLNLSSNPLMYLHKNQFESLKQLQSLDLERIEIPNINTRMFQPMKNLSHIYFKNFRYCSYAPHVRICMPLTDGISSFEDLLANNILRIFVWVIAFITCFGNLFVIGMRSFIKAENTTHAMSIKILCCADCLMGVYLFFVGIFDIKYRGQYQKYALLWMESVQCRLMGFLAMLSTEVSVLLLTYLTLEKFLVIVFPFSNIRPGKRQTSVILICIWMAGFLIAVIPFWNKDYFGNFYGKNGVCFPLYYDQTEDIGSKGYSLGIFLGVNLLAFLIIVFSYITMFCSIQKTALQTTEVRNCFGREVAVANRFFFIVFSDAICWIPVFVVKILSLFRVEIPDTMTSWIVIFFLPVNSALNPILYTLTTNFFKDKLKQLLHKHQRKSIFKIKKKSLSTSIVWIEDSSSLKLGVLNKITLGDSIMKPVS

Take INSL3 (from UniProt P51460): the Kd (commonly the equilibrium constant for the complex coming apart) in data set [1] was 1 nM.
For INSL5 (from UniProt Q9WUG6), in data set [2], the Kd was 5 nM.
For the substance INSL5 (from UniProt Q9Y5Q6), the Kd in data set [3] is 5.01 nM.
TRH (from UniProt P20396): the Kd in data set [4] was 13 nM.
Consider relaxin (from UniProt P04090), for which the Kd in data set [5] was 0.5 nM.
